Results: paper PMC8040517 (The Journal of Experimental Medicine, 2021)

Experiments:
Test in all cases: crystal structure
Details in all cases: both partners purified
[1] = biological target: TBEV^WE EDIII-His-Avitag (envelope domain III of tick-borne encephalitis virus, Western European subtype, … (Tick-borne encephalitis virus Western …, UniProt P14336))
[2] = biological target: TBEV^FE EDIII-His-Avitag (envelope domain III of tick-borne encephalitis virus, Far Eastern subtype, strain … (Tick-borne encephalitis virus Far …, UniProt P07720, strain))
[3] = biological target: TBEV^Si EDIII (envelope domain III of tick-borne encephalitis virus, Siberian subtype, strain Vasilchenko), … (Tick-borne encephalitis virus Siberian …, UniProt Q9WBS4, strain)

Measured: binding result

B1: T025 Fab (antigen-binding fragment of human antibody T025, IGVH3–30/IGVK3–15) (Fab, V domains shown)
VH: QVQLVESGGGVVQPGRSLRLSCAASGFTFSNYGMHWVRQAPGKGLDWVAVISYDAISKSYADSVEGRFTISRDNSKNTLYLQMNSLRAEDSAVYYCAKSPTAIDPPFDYWGQGTLVTVSS
VL: EIVMTQSPATLSVSPGERATLSCWASQSVSSNLAWYQQKPGQAPRLLIYGASTRATGIPARFSASGSGTEFTLTISSLQSEDFAVYYCQQYNNWPPRFGQGTKVEIK
notes: not shown: 6XHis, C-terminal, kept
binds: all assays above
